Measurements reported in US7150969B2, “Alternatively spliced isoform of acetyl-CoA carboxylase 2 (ACC2)” (Rosetta Inpharmatics LLC, priority 2004, dated 2006).

Tested on: CC(=O)SCCNC(=O)CCNC(=O)[C@H](O)C(C)(C)COP(=O)(O)OP(=O)(O)OC[C@H]1O[C@@H](n2cnc3c(N)ncnc32)[C@H](O)[C@@H]1OP(=O)(O)O
Assay: purified protein, by the assay type
Settings: other: 37° C., 40 minutes, pH 7.5, 20 mM citrate

## ACC1 (Homo sapiens)
  Km: 51 µM

## ACC2 (Homo sapiens)
  Km: 108 µM
